# According to patent publication US20240317871A1 (IMMUNOMIC THERAPEUTICS, published 2024):
# T1: murine HVEM (murine, UniProt Q80WM9 39-206, limits assumed)
# T1 construct: also called Mouse
# T1 sequence (looked up): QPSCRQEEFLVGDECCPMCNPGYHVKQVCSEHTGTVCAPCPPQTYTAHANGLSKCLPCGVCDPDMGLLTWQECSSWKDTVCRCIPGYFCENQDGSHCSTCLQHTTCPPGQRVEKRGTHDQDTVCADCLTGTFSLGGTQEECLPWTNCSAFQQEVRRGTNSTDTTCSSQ
# T2: human HVEM (human, UniProt Q92956 39-202, limits assumed)
# T2 sequence (looked up): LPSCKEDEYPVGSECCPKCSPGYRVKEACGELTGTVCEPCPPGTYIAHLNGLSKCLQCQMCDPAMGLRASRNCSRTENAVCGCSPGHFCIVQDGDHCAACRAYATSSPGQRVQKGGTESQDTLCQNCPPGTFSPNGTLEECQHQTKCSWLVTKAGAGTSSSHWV
# T3: cynomolgus monkey HVEM (cynomolgus monkey, UniProt A0A2K5W0R1 39-203)
# T3 sequence: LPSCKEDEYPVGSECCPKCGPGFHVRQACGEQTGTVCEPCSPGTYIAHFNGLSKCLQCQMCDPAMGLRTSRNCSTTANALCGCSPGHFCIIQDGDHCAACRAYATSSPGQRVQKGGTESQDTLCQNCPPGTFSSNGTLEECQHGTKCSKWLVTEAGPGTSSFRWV
# Tests used:
# Experiment in all cases: ELISA
# [1] = target: T1, murine HVEM
# [2] = target: T2, human HVEM
# [3] = target: T3, cynomolgus monkey HVEM
# Also: test concentration or dose not given here.
Binder,ELISA signal [1],ELISA signal [2],ELISA signal [3]
"Ab_024 (H5S15-1A1A) (antibody, V domains shown, also called Ab_24) VH: EVQLQQSGAELVKPGASVKLSCTASGFNIKDTYMHWVKQRPEQGLAWIGRIAPANGYTKYDPKFQGKATITTDTSSNTAYLHLSRLTSEDTAVYYCANYFGNTYDWFAFWGQGTLVTVSA VL: ENVLTQSPAIMSASPGEKVTMTCSAGSSVSYMHWYQQKSSTSPKLWIYDTSKLPSGVPGRFSGSGSGNSYSLTISSMEAEDVATYYCFQGSGFPLTFGSGTKLEIK",0.044,0.048,0.063
"Ab_032 (H5S15-7A8A) (antibody, V domains shown, also called Ab_32) VH: QIQLVQSGPELKKPGETVKISCKASGYTFTNYGMNWVKQAPGKGLKWVGWINTYTGEPTYAEDFKGRFAFSLETSASTAYLQINNLKNEDMATYFCARSFYGSEAYWGQGTLVTVSA VL: QIVLTQSPAIMSASLGEEITLTCSASSSVSFMHWYQQKSGTSPKLLIYSTSNLASGVPSRFSGSGSGTFYSLTISSVEAEDAADYYCHQWSSYLWTFGGGAKLEIK",0.045,3.04,2.87
"Ab_033 (H5S15-7B8A) (antibody, V domains shown, also called Ab_33) VH: QIQLVQSGPELKKPGETVKISCKASGYTFTNYGMNWVKQAPGKGLKWVGWINTYTGEPTYADDFKGRFAFSLETSASTAYLQINNLKNEDMATYFCARSFYGSEAYWGQGTLVTVSA VL: QIVLTQSPAIMSASLGEEITLTCSASSSVSFMHWYQQKSGTSPKLLIYSTSNLASGVPSRFSGSGSGTFYSLTISSVEAEDAADYYCHQWSSYLWTFGGGAKLEIK",0.043,3.1,3.02
"Ab_037 (H5S15-13A15A) (antibody, V domains shown, also called Ab_37) VH: QVQLKQSGPGLVQPSQSLSITCTVSGFSLTSYGVHWVRQSPGKGLEWLGVIWRGGSTDYNAAFMSRLSITKDNSKSQVFFKMNSLQADDTAIYYCAKTGFAYWGQGTLVTVSA VL: QIVLTQSPAIMSASPGEKVTMTCSASSSVSYMHWYQQKSGTSPKRWIYDTSKLASGVPARFSGSGSGTSYSLTISSMEAEDAATYYCQQWSSNPLTFGAGTKLELK",0.043,0.059,0.06
"Ab_038 (H5S15-19A18A) (antibody, V domains shown, also called Ab_38) VH: QVQLKESGPGLVAPSQSLSITCTVSGFSLTGYGVNWVRQPPGKGLEWLGMIWGDGGTDYNSALKSRLSISKDNSKSQVFLKMNSLQTDDTARYYCARDNYHTVVNGDYWGQGTSVTVSS VL: ENVLTQSPAIMSASPGEKVTMTCRASSSVSSSYLHWYQQKSGASPKLWIYSTSNLASGVPARFSGSGSGTSYSLTISSVEAEDAATYYCQQYSGYPLTFGGGTKLEIK",0.043,0.049,0.06
"Ab_039 (H5S15-21A19A) (antibody, V domains shown, also called Ab_39) VH: QIQLVQSGPDLKKPGETVKISCKASGYTFTNYGMNWVKQAPGKDLKWMGWINTYTGEPTYADDFKGRFAFSLETSASTAYLQINNLKNDDTATYFCARSINYDSDEKWGQGTSVTVSS VL: QIVLTQSPAIMSASLGERVTLTCTASSSVSSSYLHWYQQKPGSSPKLWIYDTSNLASGVPARFSGSGSGTSYSLTISSMEAEDAATYYCHQYHRSQWTFGGGTKLEIK",0.042,2.87,3.03
"Ab_040 (H5S15-23A21A) (antibody, V domains shown, also called Ab_40) VH: EVQLQQSGTVLARPGASVKMSCKASGYTFTSFWMHWVKQRPGQGLEWIGAISPGNSETTYNQKFTGKAKLTAVTSTSTAYMELSSLTNEDSAVYYCTKIYYDYDDGYWGQGTTLTVSS VL: not shown",0.05,0.069,0.098
"Ab_041 (H5S15-27A22A) (antibody, V domains shown, also called Ab_41) VH: EVQLQQSGAELVKPGASVKLSCTASGFNIKDTYMHWVKQRPEQGLEWIGRIDPANGNTKYDPKFQGKATITADTSSNTAYLQLSSLTSEDTAVYYCARSRRYFDVWGAGTTVTVSS VL: not shown",0.045,0.059,0.076
"Ab_042 (H5S15-28A23A) (antibody, V domains shown, also called Ab_42) VH: QVQLQQSGAELVKPGASVKMSCKAFGYTFTTYPIEWMKQNHGKSLEWIGNFHPYNDDTKYNEKFKGKAKLTVEKSSSTVYLELSRLTSDDSAVYYCARGGFAYWGQGTLVTVSA VL: DVVMTQTPLSLPVSLGDQASISCRSSQSLVHSNGNTYLHWYLQKPGQSPKLLIYKVSNRFSGVPDRFSGSGSGTDFTLKISRVEAEDLGVYFCSQSTHVPFTFGSGTKLEIK",0.046,0.049,0.062
"Ab_047 (H5S15-36A32A) (antibody, V domains shown, also called Ab_47) VH: EVQLQQSGAELVKPGASVKLSCTASGFNIKDTYMHWVKQRPEQGLEWIGRIDPANGNTKYDPKFQGKATITADTSSNTAYLQLSSLTSEDTAVYYCARPYGNYGFAYWGQGTLVTVSA VL: DIQMTQSPASLSASVGETVTITCRASGNIHNYLAWYQQKQGKSPQLLVYNAKTLADGVPSRFSGSGSGTQYSLKINSLQPEDFGSYYCQHFWSTFTFGSGTKLEIK",0.051,1.19,0.743
"Ab_048 (H5S19-24A22A) (antibody, V domains shown, also called Ab_48) VH: QVQLQQSGGELLRPGTSVKVSCKASGYAFTNYLIEWVKQRPGQGLEWIGVINPGSGGIYYKEKFKDKAILTADKSSSTAYMQLSSLTSDDSAVYFCARGDAMDFWGQGTSVTVSS VL: DAVMTQTPLSLTVSLGDQASISCRSSQTLENTNGNTYLNWYLQKPGQSPQLLIYRVSNRFSGVLDRFSGSGSGTDFTLKISRVEAEDLGVYFCLQVTHVPYTFGGGTKLEIK",0.044,2.5,0.826
"Ab_061 (H5S19-13A16B) (antibody, V domains shown, also called Ab_61) VH: QIQLVQSGPELKKPGETVKISCKASGYTFTNFGVNWVKQAPGKGLKWMGWINTYTGEPTYADDFKGRFAFSLETSASTAYLRINNLKNEDTATYFCARSYYANYAYWGQGTTLTVSS VL: QIVLTQSPAIMSASPGEKVTLTCSASSSVDSSYLYWYQQKPGSSPKLWIYGTSNLASGVPARFSGSGSGTSYSLTISSMEAEDAASYFCHQWNSYPWTFGGGTKLEIK",0.043,2.98,3.03
"Ab_060 (H5S19-8A16A) (antibody, V domains shown, also called Ab_60) VH: QIQLVQSGPELKKPGETVKISCKASGYTFTNFGVNWVKQAPGKGLKWMGWINTYTGEPTYADDFKGRFAFSLETSASTAYLRINNLKNEDTASYFCARSYYANNAYWGQGTTLTVSS VL: QIVLTQSPAIMSASPGEKVTLTCSASSSVDSSYLYWFQQKPGSSPKLWIYGTSNLASGVPARFSGSGSGTSYSLTISSMEAEDAASYFCHQWNSYPWTFGGGTKLEIK",0.044,3.09,3.03
"Ab_062 (H5S19-16A18A) (antibody, V domains shown, also called Ab_62) VH: QIQLVQSGPELKKPGETVKISCKASGYTFTNFGVNWVKQAPGKGLKWMGWINTYTGEPTYADDFKGRFAFSLETSASTAYLQINNLKNEDTATYFCVRSYYGNSGYWGQGTTLTVSS VL: QIVLTQSPAIMSTSPGEKVTLTCSASSSVSSSYLYWYQQKPGSSPKLWIYSTSNLASGVPARFSGSGSGTSYSLTISSMEAEDAASYFCHQWSTYPWTFGGGTKLEIK",0.045,2.95,2.98
"Ab_075 (H5S20-12A10A) (antibody, V domains shown, also called Ab_75) VH: QIQLVQSGPELKKPGETVKISCKASGYTFTNFGMNWVRQAPGKGLKWMGWINTYTGEPTYADDFKGRFAFSLETSASTAYLQINNLKNDDMATYFCARSLYGNRDYWGQGTTLTVSS VL: QIVLTQSPAIMSASLGEEITLTCSASSSVSYMHWYQQRSGTSPKLLIYSTSNLASGVPSRFSGSGSGTFYSLTISSVEAEDAADYYCHQWSSYRTFGGGTKLEIK",0.048,3.04,3.04
